{"source": "paper PMC6776472", "about": "(Biochemistry, 2018)", "key": {"[1]": {"target": "p38α (unphosphorylated, recombinant) (UniProt Q16539 1-360)", "sequence (Q16539 whole entry)": "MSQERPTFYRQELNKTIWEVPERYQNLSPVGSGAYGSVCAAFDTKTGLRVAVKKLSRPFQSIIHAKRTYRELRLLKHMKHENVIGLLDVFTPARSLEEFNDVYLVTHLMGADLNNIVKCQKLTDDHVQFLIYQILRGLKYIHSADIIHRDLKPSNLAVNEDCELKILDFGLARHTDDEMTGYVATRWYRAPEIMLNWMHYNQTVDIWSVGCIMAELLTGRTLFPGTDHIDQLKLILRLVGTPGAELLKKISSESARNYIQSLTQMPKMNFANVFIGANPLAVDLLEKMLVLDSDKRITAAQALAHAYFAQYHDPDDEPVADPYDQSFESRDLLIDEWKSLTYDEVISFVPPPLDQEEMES", "test": "fluorescence polarisation"}, "ERK2": {"target": "ERK2 (UniProt P28482 1-360)", "sequence (P28482 whole entry)": "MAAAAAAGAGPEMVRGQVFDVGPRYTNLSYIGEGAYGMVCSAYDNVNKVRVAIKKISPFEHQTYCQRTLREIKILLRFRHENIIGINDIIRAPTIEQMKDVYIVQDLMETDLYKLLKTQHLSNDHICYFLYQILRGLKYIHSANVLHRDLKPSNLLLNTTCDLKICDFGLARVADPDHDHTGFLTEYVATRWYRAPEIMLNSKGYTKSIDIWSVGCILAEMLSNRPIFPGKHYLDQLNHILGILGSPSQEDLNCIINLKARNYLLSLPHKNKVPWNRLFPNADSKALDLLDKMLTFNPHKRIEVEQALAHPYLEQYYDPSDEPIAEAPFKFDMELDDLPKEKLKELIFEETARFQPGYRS", "test": "fluorescence polarisation"}, "JNK1": {"target": "JNK1 (UniProt P45983 1-427)", "sequence (P45983 whole entry)": "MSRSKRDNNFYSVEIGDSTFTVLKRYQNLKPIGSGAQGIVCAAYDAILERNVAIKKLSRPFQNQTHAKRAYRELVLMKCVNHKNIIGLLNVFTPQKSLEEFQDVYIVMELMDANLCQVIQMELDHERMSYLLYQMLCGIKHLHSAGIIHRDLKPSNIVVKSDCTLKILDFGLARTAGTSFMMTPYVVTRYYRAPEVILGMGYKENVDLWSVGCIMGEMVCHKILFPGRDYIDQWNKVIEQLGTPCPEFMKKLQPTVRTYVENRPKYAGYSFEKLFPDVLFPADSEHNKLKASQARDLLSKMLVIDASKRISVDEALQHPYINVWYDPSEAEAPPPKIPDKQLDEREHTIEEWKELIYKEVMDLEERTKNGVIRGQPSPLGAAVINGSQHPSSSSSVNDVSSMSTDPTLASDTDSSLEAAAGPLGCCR", "test": "ITC"}}, "note": "No end group written: not given here."}
{"binder": "{TAMRA}-GKKRNPGLKIPK", "note": "[MKK6-derived 12-residue peptide, TAMRA-labeled]", "values": [{"measurement": "Kd", "setting": "[1]", "result": 3.9, "unit": "µM"}, {"measurement": "binding result", "setting": "ERK2", "result": "binds"}]}
{"binder": "pepMKK6mb (designed binder) RDLEVVAATPTSLLISWDAPAVTVRYYRITYGETGGNSPVQEFTVPGSKSTATISGLKPGVDYTITVYAVTGRPGLKIPSKPISINYRTEI", "values": [{"measurement": "Kd", "setting": "JNK1", "result": "> 100", "unit": "µM"}]}
